Several values for one entry are separate records, joined by “and”; a condition that tells them apart may be missing. Identical values can stand only once.
What was measured:
PANC-1 cells = experiment: MTT proliferation assay, PANC-1; assay type: cell-based, human; settings: for Mean Absorbance (570 nM) ± S.E.: single experiments 1-3
endogenous STAT3 = target: T1, endogenous STAT3 (Homo sapiens, UniProt P40763); experiment: Immunoprecipitation of endogenous STAT3 from MDA-MB-231 lysate, Western blot; assay type: binding; settings: FIG. 3
T1 construct: endogenous STAT3 immunoprecipitated with all sdAbs tested at varying amounts; endogenous in cells
Description: The specificity of STAT3 sdAbs was assayed in human breast cancer cells. […] The cells were then disrupted in freshly prepared ice-cold lysis buffer (20 mM HEPES, pH 7.9, 400 mM NaCl, 0.1% NP-40, 10% glycerol, 1 mM sodium vanadate, 1 mM sodium fluoride, 1 mM dithiothreitol, 1 mM phenylmethylsulfonyl fluoride, 10 μg/mL aprotinin, 10 μg/mL leupeptin) for 45 minutes on ice. Lysates were then centrifuged, the supernatant collected, and protein concentration was determined using a modified Lowry method (Bio Rad, Hercules, Calif.). Total protein (1 mg) was incubated with 1.5 mg of Dynabeads (Invitrogen) with sdAbs against STAT3, a positive control (STAT3, cat#SC-482, Santa Cruz Biotechnology, Dallas, Tex.), or negative control (STAT-1, cat#9172, Cell Signaling, Danvers, Mass.) for 1 hour at 4° C. Beads were then washed. Following the final wash, 60 μl of lysis buffer was added, and the resulting supernatant was subject to Western blot analysis. Briefly, samples were separated on 10% polyacrylamide gels and transferred to a nitrocellulose membrane. The membranes were blocked, then incubated with appropriate primary and secondary antibodies. Anti-STAT3 antibody, used as a positive control, was from Cell Signaling (Cat#4904, Danvers, Mass.). The chemiluminescence reaction was performed using the ECL system from Santa Cruz Biotechnology (Dallas, Tex.).

MDA-MB-231 cells = experiment: MTT proliferation assay, MDA-MB-231; assay type: cell-based, human
[1] = tested on: STAT3 reporter, induction by interleukin-6; experiment: STAT3 reporter GloResponse SIE-luc2P/HEK293 cell assay, IL-6 induction; assay type: cell-based;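 note: IL-6 added at 40 ng/mL (EC80) for roughly one day after pretreatment, luciferase luminescence read with Bio-Glo reagent, untreated +IL6 wells serve as control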
[2] = tested on: GloResponse SIE-luc2P/HEK 293 cells; experiment: BCA protein concentration of reporter cells run in parallel; assay type: cell-based
[3] = tested on: rabbit anti-llama biotinylated antibody or his-probe (H-3) biotin labeled antibody; experiment: ELISA with sdAbs coated, binding of secondary antibodies (Experiments 2 and 3)
Description: Two assays (Experiment 2 and 3) were performed to assess the binding of the secondary antibody to the sdAbs. A similar ELISA method was utilized except the sdAbs were directly coated onto the assay plate at a concentration of 1 μg/mL. Plates were incubated overnight at 2-8° C. After the incubation, plates were washed (3×) and blocked (3% BSA in PBS) for at least one hour at room temperature.
After removal of the blocking buffer and washing (3×), the secondary antibodies, either rabbit anti-llama biotinylated antibody or his-probe (H-3) biotin labeled antibody at was then added at a 1:5,000 dilution to each well and incubated with shaking for at least one hour at room temperature. Only the rabbit anti-llama biotinylated antibody was used in Experiment 2. Both antibodies were run in parallel in Experiment 3.
After the incubation with secondary antibody, the plates were again washed (3×) and HRP at a 1:50,000 dilution was added to each well. Plates were incubated with shaking for at least one hour at room temperature. One last wash (3×) was performed followed by the addition of TMB substrate and plates were incubated at room temperature. For the anti-llama biotinylated antibody stop solution was added to halt the colorimetric reaction at 10 minutes. The his-probe (H-3) biotin labeled antibody was allowed to incubate for 20 minutes prior to stopping. The absorbance at 450 nm was measured as before.

[4] = MDA-MB-231, 5 days of treatment, 0.5 μg/ml
[5] = MDA-MB-231, 5 days of treatment, 1.0 μg/ml
[6] = MDA-MB-231, 5 days of treatment, 10.0 μg/ml
[7] = MDA-MB-231, 5 days of treatment, 100.0 μg/ml
[8] = 24 Hour Treatment Prior to IL6 Induction, high conc.: VHH13 55.8 μg/mL, VHH14 84.3 μg/mL, BB1608 4.16 μM, VHH69 50.5 μg/mL
[9] = 24 Hour Treatment Prior to IL6 Induction, low conc.: VHH13, VHH14, VHH69 10 μg/mL, BB1608 2 μM
[10] = 48 Hour Treatment Prior to IL6 Induction, high conc.: VHH13 55.8 μg/mL, VHH14 84.3 μg/mL, BB1608 4.16 μM, VHH69 50.5 μg/mL
[11] = 48 Hour Treatment Prior to IL6 Induction, low conc.: VHH13, VHH14, VHH69 10 μg/mL, BB1608 2 μM

T1 sequence (P40763 whole entry): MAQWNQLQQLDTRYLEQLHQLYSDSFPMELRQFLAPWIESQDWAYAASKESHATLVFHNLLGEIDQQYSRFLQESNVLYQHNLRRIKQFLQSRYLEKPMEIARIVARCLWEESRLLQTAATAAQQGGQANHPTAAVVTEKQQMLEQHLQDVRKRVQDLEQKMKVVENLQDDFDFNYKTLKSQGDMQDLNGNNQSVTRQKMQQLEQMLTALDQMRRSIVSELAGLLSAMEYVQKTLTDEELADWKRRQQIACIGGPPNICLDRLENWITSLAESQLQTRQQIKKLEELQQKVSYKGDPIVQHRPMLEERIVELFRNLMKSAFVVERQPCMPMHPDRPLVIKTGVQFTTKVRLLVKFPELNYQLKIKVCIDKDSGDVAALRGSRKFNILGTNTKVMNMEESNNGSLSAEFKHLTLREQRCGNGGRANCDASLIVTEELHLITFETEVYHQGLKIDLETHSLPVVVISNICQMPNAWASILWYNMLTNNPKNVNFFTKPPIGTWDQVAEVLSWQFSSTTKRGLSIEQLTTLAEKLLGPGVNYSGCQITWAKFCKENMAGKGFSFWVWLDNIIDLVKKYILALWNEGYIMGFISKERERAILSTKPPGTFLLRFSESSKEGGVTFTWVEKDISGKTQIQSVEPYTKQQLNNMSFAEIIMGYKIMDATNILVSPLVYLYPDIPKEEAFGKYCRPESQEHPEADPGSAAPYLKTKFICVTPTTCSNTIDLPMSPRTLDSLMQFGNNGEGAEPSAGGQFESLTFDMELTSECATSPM

B1: H.VHH14: anti-STAT3 sdAb VHH14 (SEQ ID NO:4), presumably the form produced in mammalian cells (protein)
VHH: QVQLVESGGGSVQAGGSLRLSCVASTYTGCMGWFRQAPGKEREGVAALSSRGFAGHYTDSVKGRFSISRDYVKNAVYLQMNTVKPEDAAMYYCAAREGWECGETWLDRTAGGHTYWGQGTLVTVSS
modifications: Camelid
PANC-1 cells; PANC-1, Day 3, 10.0 μg/ml
  Mean Absorbance (570 nM) ± S.E., Overall Mean: 1.089 ± 0.085
  Mean Absorbance (570 nM) ± S.E.: 0.920 ± 0.133 and 1.183 ± 0.114 and 1.163 ± 0.044
PANC-1 cells; PANC-1, Day 3, 100 μg/ml
  Mean Absorbance (570 nM) ± S.E., Overall Mean: 0.906 ± 0.054
  Mean Absorbance (570 nM) ± S.E.: 0.808 ± 0.239 and 0.993 ± 0.088 and 0.916 ± 0.088
PANC-1 cells; PANC-1, Day 5, 10.0 μg/ml
  Mean Absorbance (570 nM) ± S.E., Overall Mean: 1.368 ± 0.247
  Mean Absorbance (570 nM) ± S.E.: 1.859 ± 0.033 and 1.165 ± 0.015 and 1.081 ± 0.103
PANC-1 cells; PANC-1, Day 5, 100 μg/ml
  Mean Absorbance (570 nM) ± S.E., Overall Mean: 0.754 ± 0.333
Endogenous STAT3
  immunoprecipitation of endogenous STAT3: immunoprecipitated
MDA-MB-231 cells; MDA-MB-231, 3 days of treatment, 1.0 μg/ml
  % Inhibition: 0.5%
MDA-MB-231 cells; [4]
  % Inhibition: 9.5%
MDA-MB-231 cells; [5]
  % Inhibition: 4.9%
MDA-MB-231 cells; [6]
  % Inhibition: 18.2%
MDA-MB-231 cells; [7]
  % Inhibition: 18.9%
MDA-MB-231 cells; MDA-MB-231, Day 3, 0.5 μg/ml
  Mean Absorbance (570 nM) ± S.E.: 0.485 ± 0.040
MDA-MB-231 cells; MDA-MB-231, Day 3, 1.0 μg/ml
  Mean Absorbance (570 nM) ± S.E.: 0.402 ± 0.017
MDA-MB-231 cells; MDA-MB-231, Day 3, 10.0 μg/ml
  Mean Absorbance (570 nM) ± S.E.: 0.588 ± 0.020
MDA-MB-231 cells; MDA-MB-231, Day 3, 100 μg/ml
  Mean Absorbance (570 nM) ± S.E.: 0.416 ± 0.030
MDA-MB-231 cells; MDA-MB-231, Day 5, 0.5 μg/ml
  Mean Absorbance (570 nM) ± S.E.: 0.890 ± 0.021
MDA-MB-231 cells; MDA-MB-231, Day 5, 1.0 μg/ml
  Mean Absorbance (570 nM) ± S.E.: 0.935 ± 0.037
MDA-MB-231 cells; MDA-MB-231, Day 5, 10.0 μg/ml
  Mean Absorbance (570 nM) ± S.E.: 0.804 ± 0.015
MDA-MB-231 cells; MDA-MB-231, Day 5, 100 μg/ml
  Mean Absorbance (570 nM) ± S.E.: 0.797 ± 0.010

B2: Anti-STAT3 VHH14: second anti-STAT3 single domain antibody, SEQ ID NO:4 (protein)
VHH: B1 VHH
modifications: Camelid
[1]; [8]
  Average RLU: 496624 RLU
  Average RLU with Media Blank: 496598 RLU
  Luminescence (RLU), single wells: 465649 RLU and 520343 RLU and 503880 RLU
[1]; [9]
  Average RLU: 214828 RLU
  Average RLU with Media Blank: 214803 RLU
  Luminescence (RLU), single wells: 218125 RLU and 203210 RLU and 223150 RLU
[1]; [10]
  Average RLU: 480595 RLU
  Average RLU with Media Blank: 480562 RLU
  Luminescence (RLU), single wells: 494706 RLU and 488307 RLU and 458771 RLU
[1]; [11]
  Average RLU: 232537 RLU
  Average RLU with Media Blank: 232504 RLU
  Luminescence (RLU), single wells: 241785 RLU and 236843 RLU and 218982 RLU
[1]; 24 hours and 48 hours treatment prior to IL-6
  effect on IL-6 induction of STAT3 reporter: enhancement of the IL-6 induction
[2]; [8]
  Protein concentration: 270
[2]; [9]
  Protein concentration: 189
[2]; [10]
  Protein concentration: 229
[2]; [11]
  Protein concentration: 216
Endogenous STAT3
  immunoprecipitation of endogenous STAT3: immunoprecipitated
MDA-MB-231 cells; MDA-MB-231, 3 days of treatment, 10.0 μg/ml
  % Inhibition: 23.1%
MDA-MB-231 cells; MDA-MB-231, 3 days of treatment, 100.0 μg/ml
  % Inhibition: 57.0%
MDA-MB-231 cells; MDA-MB-231, 3 days, 10.0 μg/ml
  Overall Average % Inhibition: 26.2%
MDA-MB-231 cells; MDA-MB-231, 3 days, 10.0 μg/ml, single experiments 1-4, listed as B.VHH14
  Mean Growth Inhibition: 23.1% and 20.0% and 38.5% and 23.3%
MDA-MB-231 cells; MDA-MB-231, 3 days, 100 μg/ml
  Overall Average % Inhibition: 55.7%
MDA-MB-231 cells; MDA-MB-231, 3 days, 100 μg/ml, single experiments 1-4, listed as B.VHH14
  Mean Growth Inhibition: 57.0% and 42.8% and 62.3% and 60.6%
MDA-MB-231 cells; [4]
  % Inhibition: 0%
MDA-MB-231 cells; [5]
  % Inhibition: 0%
MDA-MB-231 cells; [6]
  % Inhibition: 5.5%
MDA-MB-231 cells; [7]
  % Inhibition: 18.9%
MDA-MB-231 cells; MDA-MB-231, 5 days, 10.0 μg/ml
  Overall Average % Inhibition: 14.9%
MDA-MB-231 cells; MDA-MB-231, 5 days, 100 μg/ml
  Overall Average % Inhibition: 38.6%
MDA-MB-231 cells; MDA-MB-231, Day 3, 0.5 μg/ml
  Mean Absorbance (570 nM) ± S.E.: 0.666 ± 0.022
MDA-MB-231 cells; MDA-MB-231, Day 3, 1.0 μg/ml
  Mean Absorbance (570 nM) ± S.E.: 0.644 ± 0.045
MDA-MB-231 cells; MDA-MB-231, Day 3, 10.0 μg/ml
  Mean Absorbance (570 nM) ± S.E.: 0.456 ± 0.048
MDA-MB-231 cells; MDA-MB-231, Day 3, 100 μg/ml
  Mean Absorbance (570 nM) ± S.E.: 0.255 ± 0.005
MDA-MB-231 cells; MDA-MB-231, Day 5, 0.5 μg/ml
  Mean Absorbance (570 nM) ± S.E.: 0.733 ± 0.038
MDA-MB-231 cells; MDA-MB-231, Day 5, 1.0 μg/ml
  Mean Absorbance (570 nM) ± S.E.: 0.794 ± 0.023
MDA-MB-231 cells; MDA-MB-231, Day 5, 10.0 μg/ml
  Mean Absorbance (570 nM) ± S.E.: 0.640 ± 0.011
MDA-MB-231 cells; MDA-MB-231, Day 5, 100 μg/ml
  Mean Absorbance (570 nM) ± S.E.: 0.549 ± 0.023
MDA-MB-231 cells; Table 6, MDA-MB-231, Day 3, 10.0 μg/ml
  Mean Absorbance (570 nM) ± S.E., Overall Mean: 0.504 ± 0.021
MDA-MB-231 cells; Table 6, MDA-MB-231, Day 3, 10.0 μg/ml, single experiments 1-4, listed as B.VHH14
  Mean Absorbance (570 nM) ± S.E.: 0.456 ± 0.048 and 0.499 ± 0.018 and 0.502 ± 0.048 and 0.559 ± 0.041
MDA-MB-231 cells; Table 6, MDA-MB-231, Day 3, 100 μg/ml
  Mean Absorbance (570 nM) ± S.E., Overall Mean: 0.302 ± 0.043
MDA-MB-231 cells; Table 6, MDA-MB-231, Day 3, 100 μg/ml, single experiments 1-4, listed as B.VHH14
  Mean Absorbance (570 nM) ± S.E.: 0.255 ± 0.005 and 0.357 ± 0.019 and 0.308 ± 0.021 and 0.287 ± 0.021
MDA-MB-231 cells; Table 7, MDA-MB-231, Day 5, 10.0 μg/ml
  Mean Absorbance (570 nM) ± S.E., Overall Mean: 0.688 ± 0.131
MDA-MB-231 cells; Table 7, MDA-MB-231, Day 5, 100 μg/ml
  Mean Absorbance (570 nM) ± S.E., Overall Mean: 0.475 ± 0.0690
[3]; His-probe (H-3), Experiment 3, stored 1:100 dilution of sdAb
  OD450 Values: 3.416
[3]; Rabbit anti-Llama Secondary Antibody, Experiment 2, sdAb coated at 1 μg/mL
  OD450 Values: 2.813
[3]; Rabbit anti-Llama Secondary Antibody, Experiment 3, stored 1:100 dilution of sdAb
  OD450 Values: 2.439

Reference: patent publication US20170327598A1, “SINGLE DOMAIN ANTIBODIES DIRECTED AGAINST INTRACELLULAR ANTIGENS” (SINGH MOLECULAR MEDICINE, LLC, priority 2014, published 2017)
